Data as given in US20240189352A1 (published 2024).

Tests used:
Assay in all cases: cytokine release
[1] = biological target: T1, RAC2 P29L, position 2 replaced by alanine peptide on HLA-A*02:01 (human)
T1 peptide: FAGEYIPTV

[2] = biological target: T2, RAC2 P29L peptide on HLA-A*02:01 (human)
T2 peptide: FLGEYIPTV

[3] = biological target: T3, RAC2 P29L, position 1 replaced by alanine peptide on HLA-A*02:01 (human)
T3 peptide: ALGEYIPTV

[4] = biological target: T4, RAC2 P29L, position 3 replaced by alanine peptide on HLA-A*02:01 (human)
T4 peptide: FLAEYIPTV

[5] = biological target: T5, RAC1 P29S peptide on HLA-A*02:01 (human)
T5 peptide: FSGEYIPTV

[6] = biological target: T6, RAC2 P29L, position 6 replaced by alanine peptide on HLA-A*02:01 (human)
T6 peptide: FLGEYAPTV

[7] = biological target: T7, RAC2 P29L, position 4 replaced by alanine peptide on HLA-A*02:01 (human)
T7 peptide: FLGAYIPTV

Measured: binding result

B1: RAC2-T002 (TCR, V domains shown)
Valpha: AQSVTQLGSHVSVSEGALVLLRCNYSSSVPPYLFWYVQYPNQGLQLLLKYTTGATLVKGINGFEAEFKKSETSFHLTKPSAHMSDAAEYFCAVGANNLFFGTGTRLTVIP
Vbeta: EPEVTQTPSHQVTQMGQEVILRCVPISNHLYFYWYRQILGQKVEFLVSFYNNEISEKSEIFDDQFSVERPDGSNFTLKIRSTKLEDSAMYFCASSEWRGSSYNEQFFGPGTRLTVL
not listed: [7]
recognises: all other assays above

B2: RAC2-T001 (TCR, V domains shown)
Valpha: GENVEQHPSTLSVQEGDSAVIKCTYSDSASNYFPWYKQELGKGPQLIIDIRSNVGEKKDQRIAVTLNKTAKHFSLHITETQPEDSAVYFCAASMGNAGNMLTFGGGTRLMVKP
Vbeta: EPEVTQTPSHQVTQMGQEVILRCVPISNHLYFYWYRQILGQKVEFLVSFYNNEISEKSEIFDDQFSVERPDGSNFTLKIRSTKLEDSAMYFCASSETSGASYEQYFGPGTRLTVT
not listed: [6]
recognises: all other assays above
